According to patent US20240252628A1 (ACCELERON PHARMA, published 2024):

Legend:
activin A = target: T1, activin A (UniProt P08476 311-426); test: SPR (Biacore), anti-Fc capture of receptor, 37 C
T1 construct: The same holds for m2-m11
T1 sequence (looked up): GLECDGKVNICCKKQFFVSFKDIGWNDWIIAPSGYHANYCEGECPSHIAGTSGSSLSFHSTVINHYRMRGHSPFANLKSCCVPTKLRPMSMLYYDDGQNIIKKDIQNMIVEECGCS
Protocol: (§1) A Biacore™-based binding assay was used to compare the ligand binding kinetics of an ActRIIB-Fc:ActRIIB(L79E)-Fc heterodimer with those of unmodified ActRIIB-Fc homodimer. Fusion proteins were captured onto the system using an anti-Fc antibody. Ligands were then injected and allowed to flow over the captured receptor protein at 37° C. Results are summarized in the table below, in which ligand off-rates (kd) most indicative of effective ligand traps are denoted in bold.

BMP10 = target: T2, BMP10 (UniProt O95393 317-424); test: SPR (Biacore), anti-Fc capture of receptor, 37 C
T2 sequence (looked up): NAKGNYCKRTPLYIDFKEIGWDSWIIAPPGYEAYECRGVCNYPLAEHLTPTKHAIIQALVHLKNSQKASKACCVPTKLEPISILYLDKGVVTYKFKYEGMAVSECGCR
Protocol: as §1

B1: ActRIIB-Fc:ActRIIB(L79E)-Fc heterodimer (Fc fusion)
chain 1: GRGEAETRECIYYNANWELERTNQSGLERCEGEQDKRLHCYASWRNSSGTIELVKKGCWEDDFNCYDRQECVATEENPQVYFCCCEGNFCNERFTHLPEAGGPEVTYEPPPTAPTGGGTHTCPPCPAPELLGGPSVFLFPPKPKDTLMISRTPEVTCVVVDVSHEDPEVKFNWYVDGVEVHNAKTKPREEQYNSTYRVVSVLTVLHQDWLNGKEYKCKVSNKALPAPIEKTISKAKGQPREPQVYTLPPSREEMTKNQVSLTCLVKGFYPSDIAVEWESNGQPENNYDTTPPVLDSDGSFFLYSDLTVDKSRWQQGNVFSCSVMHEALHNHYTQKSLSLSPG
chain 2: GRGEAETRECIYYNANWELERTNQSGLERCEGEQDKRLHCYASWRNSSGTIELVKKGCWLDDFNCYDRQECVATEENPQVYFCCCEGNFCNERFTHLPEAGGPEVTYEPPPTAPTGGGTHTCPPCPAPELLGGPSVFLFPPKPKDTLMISRTPEVTCVVVDVSHEDPEVKFNWYVDGVEVHNAKTKPREEQYNSTYRVVSVLTVLHQDWLNGKEYKCKVSNKALPAPIEKTISKAKGQPREPQVYTLPPSRKEMTKNQVSLTCLVKGFYPSDIAVEWESNGQPENNYKTTPPVLKSDGSFFLYSKLTVDKSRWQQGNVFSCSVMHEALHNHYTQKSLSLSPGK
notes: the receptor domains are the same in both; also called ActRIIB-Fc:ActRIIB(L79E)-Fc heteromer
fold faster off-rate than ActRIIB-Fc homodimer (activin A): ~10 fold | fold faster off-rate than ActRIIB-Fc homodimer (BMP10): ~10 fold
